Consider 21 sequences from the DeepSol protein solubility set.

The nature of the data set: soluble on expression in E. coli; label from the status in PepcDB or PDB records.
In the case of “MYYAIPTVVVSECLGFSACRYNGDIIRNSFVSRLGEFARLVPVCPEVAIGLGVPRETVRLVKRGEERRLVQSSTNRDWTREMNEFATSFFGQVGEVDGFILKGRSPTCGIKDVRVYDDEESGMVVEKGVGLFAEHVFRRFPNAAIEEEGRLTNAAIREHFLTKVFALALFREVKAKRSMKALVQFHSEHKYLFMAYSQTWLKQLGRLVANRDRLPVEQVLEAYGQGLHALFARAPQRRSHVNVCQHLMGYFKKEMSAKEKQYVLELLAQYRAQQLPLSSVASVLKSWAIREENDYLLQQRYFAPYPPALLDVRDSGKGREKAV”, the “soluble on expression in E. coli” value is recorded as “not soluble”.
The entry for “NATLKGLKLSERSTTEIQLLAEQAITVSKQEVKEFTYKVESNKQFEATVKIKADLKIDPTKAMSHIENIFKDDETKKKDAQNSLTMSMGQNEALEATFTYSPATQGIFGRASFDRFTSNIKLNTKLRIQVSSTSDLMKKLLENSLTSSLKDQSFDNEGVNLFPYTLFAL” is “not soluble”; for “NDAIIILNGEKVLDLNKKGREAFGLGARELDNISIGSLLSEKDLPAVRDALKTTLENGSACFEMKFRKQNGEVIDVEVSSSFLSLEEGEIQCVARD” it is “not soluble”.
The entry for “NDPDADRFALAARKPDGGYKMLTGDQVGTLFGHYLLTHTEASGKLVGNTIVSSTLLKKIAESMGAEYFQTLTGFKWLTNVAMQKETKEKQFLFAYEEALGYTIGSQVWDKDGLSALVAFAQLTAELATQGKCVWDQLESIYRQHGIHIN” is “not soluble”; for “NDTVLIAGAGHAGFQVAVSLRQAKYPGRIALINDEKHLPYQRPPLSKAYLKSGGDPNSLMFRPEKFFQDQAIELISDRMVSIDREGRKLLLASGTAIEYGHLVLATGARNRMLDVPNASLPDVLYLRTLDESEVLRQRMPDKKHVVVIGAGFIGLEFAATARAKGLEVDVVELAPRVMARVVTPEISSYFHDRHSGAGIRMHYGVRATEIAAEGDRVTGVVLSDGNTLPCDLVVVGVGVIPNVEIAAAAGLPTAAGIIVDQQLLTSDPHISAIGDCALFESVRFGETMRVESVQNATDQARCVAARLTGDAKPYDGYPWFWSDQGDDKLQIVGLTAGFDQVVIRGSVAERSFSAFCYKAGKLIGIESVNRAADHVFGRKILPLDKSVTPEQAADLSFDLKKAAA” it is “soluble”.
To “NEPFHLATERNRVAVMSSGGKESLTTFGMLREIGADVFPVFFNESGGHWKTAKIAYDYMKKNYSNVHKVWSNVDRFYSFMNGHMPMLDQKEIRKTADSYPVQ” belongs “not soluble”.
Take “NFLLTQPHSVSESPGKTVTISCTRSSGSIANNYVHWYQQRPGSSPTTVIFEDDHRPSGVPDRFSGSVDTSSNSASLTISGLKTEDEADYYCQSYDHNNQVFGGGTKLTVLG”: the “soluble on expression in E. coli” value is given as “soluble”.
To “NFNSQNGVNKDEKDHLIERLYREISGLKAQLENMKTESQRVVLQLKGHVSELEADLAEQQHLRQQAADDCEFLRAELDELRRQREDTEKAQRSLSEIERKAQANEQRYSKLKEKYSELVQ” belongs “soluble”; to “NGFQKEIRGQLLNVAPHAEIGYIDNTDTDWRNLLRFTENRKGILAAAPYVSNQALLANAGEIRGVQMRGILPSEERKVVEYGDKMPAGKFEDLIPGEFDIILGVGLAEALGAEVGNKVTVITPEGNVTPAGVVPRLKQFTVVGLVKTGVYEVDNSLAMTHIQDARVLYRLDKEVAGLRLKLADPQNAPALTATLIPEAQRDAVWVRDWTYSNRSYFEAVELEKR”, “soluble”; to “NGQIMYRIVTVQDSTERLESQSALRESEERFRSVVESAPDAIFIQTGGRFAYLNHSAIALFGASKAEEILGRRVADQIHPDYRDLVAERIRLLNERQ”, “not soluble”.
For the sequence “NGVPSTNVNTPAPNTGQSTAQNTNTASPLPYNRATTLPAAGTEDLKKSVQALQNTLTELQALQLQTKQAHWNVSGTLWYTLHELLQDHYEGISKFADDVAERQLSVGASSDGRAITIVAASRLPEIPGGFLDDAQVIQFFTYQYETVGQRIHQRVGDVEKVDPTTANLLQEVEHIIEKYQWQMRAFLQNTPTDPNTGFDINNGKPVPLRGR”, the “soluble on expression in E. coli” value is listed as “soluble”.
The entry for “NHYLQAEVVTAFLGLQHAAKRADFNLQPASTYRDFNRQMLIWNAKFNGKRKIHNDASKQIDITTLTDLAKIKAILRWSAVPGASRHHWGTEIDIFDPDLLPQGQHLQLEPWEYQSNGYFAPLIKWLHQHSASFGFYFPFDGIQNSQ” is “not soluble”; for “NIGSGTDEKTATARAKVVDWCNELVIASPSTKCELLAKVQETVLGSCAELAEEFLESVLSLAHDSNMEVRKQVVAFVEQVCKVKVELLPHVINVVSMLLRDNSAQVIKRVIQACGSIYKNGLQYLCSLMEPGDSAEQAWNILSLIKAQILDMIDNENDGIRTNAIKFLEGVVVLQSFADEDSLKRDGDFSLADVPDHCTLFRREKLQEEGNNILDILLQFHGTTHISSVNLIACTSSLCTIAKMRPIFMGAVVEAFK” it is “soluble”.
To “NIITVTLNMERHHFLGISIVGQSNDRGDGGIYIGSIMKGGAVAADGRIEPGDMLLQVNDVNFENMSNDDAVRVLREIVSQTGPISLTVAK” belongs “soluble”; to “NKDFEWSTTGTFSLNSNKLISLSGSIFKSDYDYFNTGTVEYSGQVADSHRVQVGESIGNFYGFKVVDVDSEGRWIYEDRNGELVNYKDFTHAPEDKHVIGNGLPKWYAGWNNTLRYKNFDLNVTMRGAFGFQIINGGRMNYENVKNSRFENRLKSVNDLVFGKHTLSPEVEPEFNSYYVEDGDYWKIDNITLGYSFGQVGKYIKSLRIYGSVLNALTITGYKGIDPEVSTDGLTPGYDTRDRYPSVRSFTFGVNVKF”, “not soluble”; to “NKDMALTVRGNFTHAENEVIYWEQSGVNYPYQSNSGVPYKVQRGLIALGLFKDEDDIKSSPKQTFMDNYRPGDIKYKDVNGDGKIDKDDVVPLNYSAVPFIQYGFALDWNYKAFRVSILFEGVSKVQYFQGGRGFYPFLNESRGNLLEMVADPRNRWIPREYAEVNGIDPALAENPNAKFPRLTYGENKNNNQESTFWLADGKYLRLKNVDVSYRFTNNWLKSRVGVESATLSLIGENLHVWDKVKLFDPSQASGNGAEYPLQRMYTLQLNLTF”, “not soluble”.
The entry for “NKNLWATIRGNFTYASSKFSKYEEPDYSATPWRSKIGTKLSQEFGLIAERLFVDEEDVANSPKQQFGEYMAGDIKYKDINHDGIIDEQDRVPIGYPTTPEIIYGFGFSIGYKDFDFNCFFQGSSRSSFFISPADISPFIQPNDPNNELGGKQATNALLQIVADDHWSEANQNMYAFWPRLSDTAISNNNQKSTWWLRDGTFLRMKSAEIGYTLPKRISSKAKLENFRIYVSGTNLFNISKFKTWDTEMGGNGLGYPVQRVFNIGVQLSL” is “not soluble”; for “NKYYKLGEIAQKVLVGGEKPADFSKEKNEVYKYPILSNNSKAEEFLVYSKTFRVEEKSITVSARGTIGAVFYRDFAYLPAVSLICFVPKEEFDIRFLFHALRAIKFKKQGSATGQLTVAQFKEYGIHVPSLKKQKEIAAILDPLYS” it is “not soluble”; for “NLHLLEYLHILPLDKIGIPKFAPKLDRKKHGDLDRPNLIYPADEQIYIHVYPDKNDMRNFYIPIEPTLLTGVDELLKEVEIRLVDYITDIDF” it is “not soluble”.
As for “NLQPLETTITDVERFKDTVTLELSCPSCDKRFPFGGIVSSNYYRVSYNGLQCKHCEQLFTPLQLTSQIEHSIRAHISLYYAGWLQCDDSTCGIVTRQVSVFGKRCLNDGCTGVMRYKYSDKQLYNQLLYFDSLFDCEKNKKQELKPIYLPDDLDYPKEQLTESSIKALTEQNRELMETGRSVVQKYLNDCGRRYVDMTSIFDFMLN”, the “soluble on expression in E. coli” value was “soluble”.
To “NMDVDIMSNQDEWRLYRYFIGRSKQTYARPSGSGTSTNEILQEGYYKVPIFARSRYWFNGEYWPALFEQAYANWKFPNDSKYNAILQIGGGWPEEALCELSGDSWFTSSGKLMLSSFTDLSLLNFMKSMCYSWKTIKPMVIVTPCWEPLPPMMPGIAAYH” belongs “not soluble”.
